Laboratory results as given in article PMC6702220 (Communications Biology, 2019).

Biological target: the molecule itself
Assay: crystal structure; hanging drop, 22 °C; 5 mg/ml PlsX, 1 mM 1-oxohexadecylphosphoramidic acid, 0.08 M Tris-HCl pH 8.0, 0.16 M Li2SO4, 21% PEG 4000, 0.012 mM CYMAL 7, 5% t-butanol; 2.30 Å; two subunits in the asymmetric unit

B1: Bacillus subtilis phosphate acyltransferase PlsX (enzyme, UniProt P71018 1-333, looked up)
chain: MRIAVDAMGGDHAPKAVIDGVIKGIEAFDDLHITLVGDKTTIESHLTTTSDRITVLHADEVIEPTDEPVRAVRRKKNSSMVLMAQEVAENRADACISAGNTGALMTAGLFIVGRIKGIDRPALAPTLPTVSGDGFLLLDVGANVDAKPEHLVQYAIMGSVYSQQVRGVTSPRVGLLNVGTEDKKGNELTKQTFQILKETANINFIGNVEARDLLDDVADVVVTDGFTGNVTLKTLEGSALSIFKMMRDVMTSTLTSKLAAAVLKPKLKEMKMKMEYSNYGGASLFGLKAPVIKAHGSSDSNAVFHAIRQAREMVSQNVAALIQEEVKEEKTDE
notes: Phosphate acyltransferase PlsX, Bacillus subtilis; plsX gene amplified from genomic DNA and inserted into pET28a between NcoI and XhoI; Crystallised with the product analog 1-oxohexadecylphosphoramidic acid (palmitoyl phosphoramide), which was not found in the solved structure; also called B. subtilis PlsX; recombinant PlsX; source: E. coli C43 (DE3), purified (HisTrap HP, gel filtration on …)
  stoichiometry N: 2
